Test results as given in patent publication US20240270821A1, “GIP/GLP1/GCG TRI-RECEPTOR AGONISTS AND USES THEREOF” (priority 2023, published 2024).

T1: human GIP receptor (human) (UniProt P48546)
T1 sequence (looked up): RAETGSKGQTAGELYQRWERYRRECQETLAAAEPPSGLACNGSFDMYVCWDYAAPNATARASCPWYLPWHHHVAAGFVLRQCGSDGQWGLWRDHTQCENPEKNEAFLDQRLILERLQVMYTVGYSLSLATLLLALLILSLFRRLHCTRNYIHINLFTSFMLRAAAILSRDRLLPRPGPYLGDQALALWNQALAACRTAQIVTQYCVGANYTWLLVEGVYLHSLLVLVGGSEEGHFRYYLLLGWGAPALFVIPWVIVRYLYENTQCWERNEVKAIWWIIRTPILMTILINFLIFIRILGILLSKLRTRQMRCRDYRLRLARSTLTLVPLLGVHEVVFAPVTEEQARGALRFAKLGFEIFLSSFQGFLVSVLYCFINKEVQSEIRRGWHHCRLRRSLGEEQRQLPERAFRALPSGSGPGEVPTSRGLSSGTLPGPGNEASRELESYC

B1: Example 862 (SEQ ID NO: 868) (peptide)
chain: YXQGTFTSDFSQXLDKKAQXAFIEYLIEXGPSSGAPPPSGS
modifications: not fully specified; synthetic construct; SITE 2: note = 2-Aminoisobutyric Acid; SITE 13: note = alpha-methyl-leucine; SITE 17: note = Lysine is chemically modified through conjugation of the epsilon-amino group of the Lysine side chain with (gamma-Glu)3-CO-(CH2)16-CO2H; SITE 20: note = 3-(4-Pyridyl)-L-alanine; SITE 29:
B2: Example 875 (SEQ ID NO: 881) (peptide)
chain: YXQGTFTSDFSQXLDKKAQXAFIEYLIAGGPSSGAPPPSGS
modifications: synthetic construct; SITE 2: note = 2-Aminoisobutyric Acid; SITE 13: note = alpha-methyl-leucine; SITE 17: note = Lysine is chemically modified through conjugation of the epsilon-amino group of the Lysine side chain with (2-[2-(2-Amino-ethoxy)-ethoxy]-acetyl)-(gamma-Glu)-CO-(CH2) 16-CO2H; SITE 20: n
B3: Example 876 (SEQ ID NO: 882) (peptide)
chain: YXQGTFTSDFSQXLDKKAQXAFIEYLIAGGPSSGAPPPSGS
modifications: not fully specified; synthetic construct; SITE 2: note = 2-Aminoisobutyric Acid; SITE 13: note = alpha-methyl-leucine; SITE 17: note = Lysine is chemically modified through conjugation of the epsilon-amino group of the Lysine side chain with (gamma-Glu)2-CO-(CH2)16-CO2H; SITE 20: note = 3-(4-Pyridyl)-L-alanine; SITE 41:
B4: Example 883 (SEQ ID NO: 889) (peptide)
chain: YXQGTFTSDXSQXLDKKAQXAFIEYLIAGGPSSGAPPPSGE
modifications: synthetic construct; SITE 2: note = 2-Aminoisobutyric Acid; SITE 10: note = 3-(4-Pyridyl)-L-alanine; SITE 13: note = alpha-methyl-leucine; SITE 17: note = Lysine is chemically modified through conjugation of the epsilon-amino group of the Lysine side chain with (gamma-Glu)2-CO-(CH2)16-CO2H; SITE 20:
B5: Example 891 (SEQ ID NO: 897) (peptide)
chain: YXQGTFTSDXSQXLDKKAQXAFIEYLIEXGPSSGAPPPSGSGE
modifications: not fully specified; C-terminus uncertain, likely amide; synthetic construct; SITE 2: note = 2-Aminoisobutyric Acid; SITE 10: note = 3-(4-Pyridyl)-L-alanine; SITE 13: note = alpha-methyl-leucine; SITE 17: note = Lysine is chemically modified through conjugation of the epsilon-amino group of the Lysine side chain with (gamma-Glu)2-CO-(CH2)16-CO2H; SITE 20:
B6: Example 893 (SEQ ID NO: 899) (peptide)
chain: YXQGTFTSDXSQXLDKKAQXAFIEYLIEXGPSSGAPPPSGSGE
modifications: not fully specified; synthetic construct; SITE 2: note = 2-Aminoisobutyric Acid; SITE 10: note = 3-(4-Pyridyl)-L-alanine; SITE 13: note = alpha-methyl-leucine; SITE 17: note = Lysine is chemically modified through conjugation of the epsilon-amino group of the Lysine side chain with (gamma-Glu)2-CO-(CH2)16-CO2H; SITE 20:
B7: Example 901 (peptide)
chain: YXQGTFTSDXSKXLDKKAQXAFIEYLIEXGPSSGAPPPSGSE
modifications: synthetic construct; SITE 2: note = 2-Aminoisobutyric Acid; SITE 10: note = 3-(4-Pyridyl)-L-alanine; SITE 13: note = alpha-methyl-leucine; SITE 17: note = Lysine is chemically modified through conjugation of the epsilon-amino group of the Lysine side chain with (2-[2-(2-Amino-ethoxy)-ethoxy]-acetyl)
B8: Example 902 (peptide)
chain: YXQGTFTSDXSKXLDKKAQXAFIEYLIEXGPSSGAPPPSGSEE
modifications: synthetic construct; SITE 2: note = 2-Aminoisobutyric Acid; SITE 10: note = 3-(4-Pyridyl)-L-alanine; SITE 13: note = alpha-methyl-leucine; SITE 17: note = Lysine is chemically modified through conjugation of the epsilon-amino group of the Lysine side chain with (2-[2-(2-Amino-ethoxy)-ethoxy]-acetyl)
B9: Example 903 (peptide)
chain: YXQGTFTSDXSKXLDKKAQXAFIEYLIEXGPSSGAPPPSGSEEE
modifications: synthetic construct; SITE 2: note = 2-Aminoisobutyric Acid; SITE 10: note = 3-(4-Pyridyl)-L-alanine; SITE 13: note = alpha-methyl-leucine; SITE 17: note = Lysine is chemically modified through conjugation of the epsilon-amino group of the Lysine side chain with (2-[2-(2-Amino-ethoxy)-ethoxy]-acetyl)
B10: Example 904 (peptide)
chain: YXQGTFTSDXSKXLDKKAQXAFIEYLIEXGPSSGAPPPSGSE
modifications: synthetic construct; SITE 2: note = 2-Aminoisobutyric Acid; SITE 10: note = 3-(4-Pyridyl)-L-alanine; SITE 13: note = alpha-methyl-leucine; SITE 17: note = Lysine is chemically modified through conjugation of the epsilon-amino group of the Lysine side chain with (gamma-Glu)2-CO-(CH2)16-CO2H; SITE 20:
B11: Example 905 (peptide)
chain: YXQGTFTSDXSKXLDKKAQXAFIEYLIEXGPSSGAPPPSGSEE
modifications: synthetic construct; SITE 2: note = 2-Aminoisobutyric Acid; SITE 10: note = 3-(4-Pyridyl)-L-alanine; SITE 13: note = alpha-methyl-leucine; SITE 17: note = Lysine is chemically modified through conjugation of the epsilon-amino group of the Lysine side chain with (gamma-Glu)2-CO-(CH2)16-CO2H; SITE 20:
B12: Example 906 (peptide)
chain: YXQGTFTSDXSKXLDKKAQXAFIEYLIEXGPSSGAPPPSGSEEE
modifications: synthetic construct; SITE 2: note = 2-Aminoisobutyric Acid; SITE 10: note = 3-(4-Pyridyl)-L-alanine; SITE 13: note = alpha-methyl-leucine; SITE 17: note = Lysine is chemically modified through conjugation of the epsilon-amino group of the Lysine side chain with (gamma-Glu)2-CO-(CH2)16-CO2H; SITE 20:

Key:
Assay in all cases: cell-based or functional assay
hGLP-1R = hGLP-1R (Homo sapiens, UniProt P43220)
[1] = molecular target: T1, human GIP receptor (human)
[2] = molecular target: human glucagon receptor (human) (UniProt P47871)
Chain of human glucagon receptor (human) (P47871 26-477): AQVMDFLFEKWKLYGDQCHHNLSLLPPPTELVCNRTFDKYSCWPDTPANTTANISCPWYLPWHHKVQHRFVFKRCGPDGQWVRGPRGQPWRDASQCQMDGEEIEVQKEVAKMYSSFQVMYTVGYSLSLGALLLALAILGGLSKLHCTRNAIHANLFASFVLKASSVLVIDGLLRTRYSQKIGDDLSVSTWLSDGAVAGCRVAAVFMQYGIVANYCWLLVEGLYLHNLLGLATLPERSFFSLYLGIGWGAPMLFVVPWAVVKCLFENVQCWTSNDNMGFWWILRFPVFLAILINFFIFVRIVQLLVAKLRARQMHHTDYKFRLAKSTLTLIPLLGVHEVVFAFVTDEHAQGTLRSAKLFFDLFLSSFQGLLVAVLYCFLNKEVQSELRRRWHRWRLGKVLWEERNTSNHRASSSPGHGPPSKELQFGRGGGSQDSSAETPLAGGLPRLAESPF

Chain of hGLP-1R (P43220 24-463): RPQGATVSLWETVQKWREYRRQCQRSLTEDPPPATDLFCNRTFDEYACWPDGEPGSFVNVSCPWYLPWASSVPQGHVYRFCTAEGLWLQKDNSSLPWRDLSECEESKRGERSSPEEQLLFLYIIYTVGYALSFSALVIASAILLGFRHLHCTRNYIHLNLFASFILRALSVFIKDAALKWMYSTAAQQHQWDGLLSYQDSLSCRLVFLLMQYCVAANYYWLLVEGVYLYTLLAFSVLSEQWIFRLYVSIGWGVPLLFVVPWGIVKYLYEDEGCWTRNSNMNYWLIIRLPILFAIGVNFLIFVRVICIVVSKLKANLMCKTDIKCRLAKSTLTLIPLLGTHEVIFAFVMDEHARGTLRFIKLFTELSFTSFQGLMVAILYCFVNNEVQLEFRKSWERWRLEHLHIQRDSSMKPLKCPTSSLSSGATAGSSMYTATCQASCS

Row | Binder | cAMP Rel EC50 (hGLP-1R) [nM] | cAMP Rel EC50 [1] [nM] | cAMP Rel EC50 [2] [nM] | Relative cAMP EC50 (hGLP-1R) [nM] | cAMP Rel EC50 (1% HSA) (hGLP-1R) [nM] | Relative cAMP EC50 [1] [nM] | cAMP Rel EC50 (1% HSA) [1] [nM] | Relative cAMP EC50 [2] [nM] | cAMP Rel EC50 (1% HSA) [2] [nM]
1 | B1 | 201 | 12.4 | 1110 |  |  |  |  |  | 
2 | B2 | 78.6 | 13.8 | 689 |  |  |  |  |  | 
3 | B3 | 70 | 7.94 | 940 |  |  |  |  |  | 
4 | B4 | 120 | 9.41 | 578 |  |  |  |  |  | 
5 | B5 | 330 | 16 | 581 |  |  |  |  |  | 
6 | B6 | 305 | 21.4 | 508 |  |  |  |  |  | 
7 | B7 |  |  |  | 1.26 | 193 | 0.17 | 34 | 9.09 | 1150
8 | B8 |  |  |  | 2.58 | 232 | 0.19 | 28.5 | 15.9 | 1360
9 | B9 |  |  |  | 2.7 | 387 | 0.277 | 31.2 | 12.9 | 1630
10 | B10 |  |  |  | 1.94 | 198 | 0.194 | 15 | 9.88 | 1330
11 | B11 |  |  |  | 2.52 | 215 | 0.217 | 10.4 | 12.3 | 1390
12 | B12 |  |  |  | 2.48 | 236 | 0.212 | 15.4 | 14.7 | 1170
